Results on eleven variants are retold here after IntAct's records for PubMed 31515488.

Sequences and labels used below:
B1: Segment polarity protein dishevelled homolog DVL-2 (Homo sapiens), O14641 (parent)
chain: MAGSSTGGGGVGETKVIYHLDEEETPYLVKIPVPAERITLGDFKSVLQRPAGAKYFFKSMDQDFGVVKEEISDDNARLPCFNGRVVSWLVSSDNPQPEMAPPVHEPRAELAPPAPPLPPLPPERTSGIGDSRPPSFHPNVSSSHENLEPETETESVVSLRRERPRRRDSSEHGAGGHRTGGPSRLERHLAGYESSSTLMTSELESTSLGDSDEEDTMSRFSSSTEQSSASRLLKRHRRRRKQRPPRLERTSSFSSVTDSTMSLNIITVTLNMEKYNFLGISIVGQSNERGDGGIYIGSIMKGGAVAADGRIEPGDMLLQVNDMNFENMSNDDAVRVLRDIVHKPGPIVLTVAKCWDPSPQAYFTLPRNEPIQPIDPAAWVSHSAALTGTFPAYPGSSSMSTITSGSSLPDGCEGRGLSVHTDMASVTKAMAAPESGLEVRDRMWLKITIPNAFLGSDVVDWLYHHVEGFPERREARKYASGLLKAGLIRHTVNKITFSEQCYYVFGDLSGGCESYLVNLSLNDNDGSSGASDQDTLAPLPGATPWPLLPTFSYQYPAPHPYSPQPPPYHELSSYTYGGGSASSQHSEGSRSSGSTRSDGGAGRTGRPEERAPESKSGSGSESEPSSRGGSLRRGGEASGTSDGGPPPSRGSTGGAPNLRAHPGLHPYGPPPGMALPYNPMMVVMMPPPPPPVPPAVQPPGAPPVRDLGSVPPELTASRQSFHMAMGNPSEFFVDVM
partner: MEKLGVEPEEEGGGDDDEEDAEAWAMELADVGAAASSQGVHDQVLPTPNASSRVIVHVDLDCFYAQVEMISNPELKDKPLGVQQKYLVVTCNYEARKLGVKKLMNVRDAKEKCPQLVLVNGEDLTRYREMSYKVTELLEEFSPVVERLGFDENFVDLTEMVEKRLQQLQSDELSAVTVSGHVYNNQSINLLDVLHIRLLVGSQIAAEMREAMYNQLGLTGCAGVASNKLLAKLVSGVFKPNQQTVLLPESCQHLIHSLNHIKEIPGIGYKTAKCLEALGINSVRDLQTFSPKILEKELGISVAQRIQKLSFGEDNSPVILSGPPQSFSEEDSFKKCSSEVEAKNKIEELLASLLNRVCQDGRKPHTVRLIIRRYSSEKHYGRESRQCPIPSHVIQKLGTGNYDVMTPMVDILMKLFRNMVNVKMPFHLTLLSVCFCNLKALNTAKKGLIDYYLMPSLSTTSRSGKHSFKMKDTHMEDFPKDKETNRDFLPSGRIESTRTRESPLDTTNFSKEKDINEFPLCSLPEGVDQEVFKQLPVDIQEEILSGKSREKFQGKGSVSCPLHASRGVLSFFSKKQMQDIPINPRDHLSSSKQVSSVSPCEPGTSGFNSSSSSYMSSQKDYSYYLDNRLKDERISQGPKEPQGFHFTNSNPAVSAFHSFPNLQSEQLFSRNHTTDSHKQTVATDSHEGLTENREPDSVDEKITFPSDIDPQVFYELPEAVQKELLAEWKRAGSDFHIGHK
B2: Coiled-coil domain-containing protein 33 (Homo sapiens), Q8N5R6-5 (parent)
chain: MGEPGPPSPPAPKAAPGLIDSFSEMNNYRRAMQKMAEDILSLRRQASILEGENRILRSRLAQQEEEEGQGKASEAQNTVSMKQKLLLSELDMKKLRDRVQHLQNELIRKNDREKELLLLYQAQQPQAALLKQYQGKLQKMKALEETVRHQEKVIEKMERVLEDRLQDRSKPPPLNRQQGKPYTGFPMLSASGLPLGSMGENLPVELYSVLLAENAKLRTELDKNRHQQAPIILQQQALPVDPGELGAGGDLTERLQETHGPGHSECTETLPAQDLLSGTSDKFNLLAKLEHAQSRILSLESQLEDSARRWGREKQDLATRLQEQEKGFRHPSNSIIIEQPVSDPPGVAPRGSGGGAGSHRTPKVTGP
partner: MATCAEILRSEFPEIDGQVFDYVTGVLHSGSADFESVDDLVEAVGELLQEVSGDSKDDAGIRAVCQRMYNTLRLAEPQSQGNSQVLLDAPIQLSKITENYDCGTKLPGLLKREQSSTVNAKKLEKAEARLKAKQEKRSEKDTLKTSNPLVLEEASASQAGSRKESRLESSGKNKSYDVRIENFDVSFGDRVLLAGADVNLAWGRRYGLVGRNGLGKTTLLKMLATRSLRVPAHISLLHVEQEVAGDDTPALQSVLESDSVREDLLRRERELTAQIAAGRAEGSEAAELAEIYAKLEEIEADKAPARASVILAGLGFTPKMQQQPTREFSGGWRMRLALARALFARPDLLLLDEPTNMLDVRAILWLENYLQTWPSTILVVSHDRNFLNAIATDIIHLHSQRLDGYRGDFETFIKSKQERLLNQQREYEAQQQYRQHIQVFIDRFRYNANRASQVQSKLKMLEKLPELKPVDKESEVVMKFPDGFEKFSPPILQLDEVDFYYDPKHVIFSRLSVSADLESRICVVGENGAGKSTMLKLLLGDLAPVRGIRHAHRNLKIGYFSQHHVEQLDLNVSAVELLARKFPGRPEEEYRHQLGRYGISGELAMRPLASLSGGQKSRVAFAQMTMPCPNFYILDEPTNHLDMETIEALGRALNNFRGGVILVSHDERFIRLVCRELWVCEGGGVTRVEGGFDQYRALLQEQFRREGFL
B3: Keratin-associated protein 5-9 (Homo sapiens), P26371 (parent)
chain: MGCCGCSGGCGSSCGGCDSSCGSCGSGCRGCGPSCCAPVYCCKPVCCCVPACSCSSCGKRGCGSCGGSKGGCGSCGCSQCSCCKPCCCSSGCGSSCCQCSCCKPYCSQCSCCKPCCSSSGRGSSCCQSSCCKPCCSSSGCGSSCCQSSCCKPCCSQSRCCVPVCYQCKI
B4: Ribosomal RNA-processing protein 7 homolog A (Homo sapiens), Q9Y3A4 (parent)
chain: MVARRRKCAARDPEDRIPSPLGYAAIPIKFSEKQQASHYLYVRAHGVRQGTKSTWPQKRTLFVLNVPPYCTEESLSRLLSTCGLVQSVELQEKPDLAESPKESRSKFFHPKPVPGFQVAYVVFQKPSGVSAALALKGPLLVSTESHPVKSGIHKWISDYADSVPDPEALRVEVDTFMEAYDQKIAEEEAKAKEEEGVPDEEGWVKVTRRGRRPVLPRTEAASLRVLERERRKRSRKELLNFYAWQHRESKMEHLAQLRKKFEEDKQRIELLRAQRKFRPY
B5: E3 ubiquitin-protein ligase LNX (Homo sapiens), Q8TBB1 (parent)
chain: MNQPESANDPEPLCAVCGQAHSLEENHFYSYPEEVDDDLICHICLQALLDPLDTPCGHTYCTLCLTNFLVEKDFCPMDRKPLVLQHCKKSSILVNKLLNKLLVTCPFREHCTQVLQRCDLEHHFQTSCKGASHYGLTKDRKRRSQDGCPDGCASLTATAPSPEVSAAATISLMTDEPGLDNPAYVSSAEDGQPAISPVDSGRSNRTRARPFERSTIRSRSFKKINRALSVLRRTKSGSAVANHADQGRENSENTTAPEVFPRLYHLIPDGEITSIKINRVDPSESLSIRLVGGSETPLVHIIIQHIYRDGVIARDGRLLPGDIILKVNGMDISNVPHNYAVRLLRQPCQVLWLTVMREQKFRSRNNGQAPDAYRPRDDSFHVILNKSSPEEQLGIKLVRKVDEPGVFIFNVLDGGVAYRHGQLEENDRVLAINGHDLRYGSPESAAHLIQASERRVHLVVSRQVRQRSPDIFQEAGWNSNGSWSPGPGERSNTPKPLHPTITCHEKVVNIQKDPGESLGMTVAGGASHREWDLPIYVISVEPGGVISRDGRIKTGDILLNVDGVELTEVSRSEAVALLKRTSSSIVLKALEVKEYEPQEDCSSPAALDSNHNMAPPSDWSPSWVMWLELPRCLYNCKDIVLRRNTAGSLGFCIVGGYEEYNGNKPFFIKSIVEGTPAYNDGRIRCGDILLAVNGRSTSGMIHACLARLLKELKGRITLTIVSWPGTFL
B6: Adiponectin (Homo sapiens), Q15848 (parent)
chain: MLLLGAVLLLLALPGHDQETTTQGPGVLLPLPKGACTGWMAGIPGHPGHNGAPGRDGRDGTPGEKGEKGDPGLIGPKGDIGETGVPGAEGPRGFPGIQGRKGEPGEGAYVYRSAFSVGLETYVTIPNMPIRFTKIFYNQQNHYDGSTGKFHCNIPGLYYFAYHITVYMKDVKVSLFKKDKAMLFTYDQYQENNVDQASGSVLLHLEVGDQVWLQVYGEGERNGLYADNDNDSTFTGFLLYHDTN

The variants in one assay derive from B1. The note with it: with poli_human POLI.
For the variant T535I, the “effect of a mutation on the interaction” value is listed as “with no effect”.

On to A53V, for which the “effect of a mutation on the interaction” value is “with no effect”.

The variants in a further assay derive from B2. The note with it: with abcf3_human ABCF3, Q9NUQ8.
Take M25V: the “effect of a mutation on the interaction” value is listed as “with no effect”.

As for G196R, the “effect of a mutation on the interaction” value is “with no effect”. With P203L, the “effect of a mutation on the interaction” value was “with no effect”. As to R30L, the “effect of a mutation on the interaction” value is listed as “with no effect”.

The next assay covers variants of B3. Conditions: with catz_human CTSZ.
In the case of Y40C, the “effect of a mutation on the interaction” value is recorded as “disrupting interaction strength”.

In another assay the parent is B3. The note with it: with sdc3_human SDC3, O75056.
sdc3_human SDC3, O75056, sequence (O75056 whole entry): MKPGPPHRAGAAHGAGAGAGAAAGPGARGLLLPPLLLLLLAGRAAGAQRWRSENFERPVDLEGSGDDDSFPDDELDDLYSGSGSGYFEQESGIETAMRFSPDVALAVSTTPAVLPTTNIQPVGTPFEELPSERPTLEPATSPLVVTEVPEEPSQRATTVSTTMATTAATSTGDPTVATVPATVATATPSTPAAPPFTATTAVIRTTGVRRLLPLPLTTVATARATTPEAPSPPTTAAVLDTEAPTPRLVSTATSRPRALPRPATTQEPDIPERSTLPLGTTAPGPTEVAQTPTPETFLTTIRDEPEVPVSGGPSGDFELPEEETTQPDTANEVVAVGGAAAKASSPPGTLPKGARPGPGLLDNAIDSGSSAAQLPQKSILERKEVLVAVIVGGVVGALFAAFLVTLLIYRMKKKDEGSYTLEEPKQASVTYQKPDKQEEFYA
For Y40C, the “effect of a mutation on the interaction” value is “with no effect”.

The next assay covers variants of B4. Conditions: with tfp11_human TFIP11, Q9UBB9.
tfp11_human TFIP11, Q9UBB9, sequence (Q9UBB9 whole entry): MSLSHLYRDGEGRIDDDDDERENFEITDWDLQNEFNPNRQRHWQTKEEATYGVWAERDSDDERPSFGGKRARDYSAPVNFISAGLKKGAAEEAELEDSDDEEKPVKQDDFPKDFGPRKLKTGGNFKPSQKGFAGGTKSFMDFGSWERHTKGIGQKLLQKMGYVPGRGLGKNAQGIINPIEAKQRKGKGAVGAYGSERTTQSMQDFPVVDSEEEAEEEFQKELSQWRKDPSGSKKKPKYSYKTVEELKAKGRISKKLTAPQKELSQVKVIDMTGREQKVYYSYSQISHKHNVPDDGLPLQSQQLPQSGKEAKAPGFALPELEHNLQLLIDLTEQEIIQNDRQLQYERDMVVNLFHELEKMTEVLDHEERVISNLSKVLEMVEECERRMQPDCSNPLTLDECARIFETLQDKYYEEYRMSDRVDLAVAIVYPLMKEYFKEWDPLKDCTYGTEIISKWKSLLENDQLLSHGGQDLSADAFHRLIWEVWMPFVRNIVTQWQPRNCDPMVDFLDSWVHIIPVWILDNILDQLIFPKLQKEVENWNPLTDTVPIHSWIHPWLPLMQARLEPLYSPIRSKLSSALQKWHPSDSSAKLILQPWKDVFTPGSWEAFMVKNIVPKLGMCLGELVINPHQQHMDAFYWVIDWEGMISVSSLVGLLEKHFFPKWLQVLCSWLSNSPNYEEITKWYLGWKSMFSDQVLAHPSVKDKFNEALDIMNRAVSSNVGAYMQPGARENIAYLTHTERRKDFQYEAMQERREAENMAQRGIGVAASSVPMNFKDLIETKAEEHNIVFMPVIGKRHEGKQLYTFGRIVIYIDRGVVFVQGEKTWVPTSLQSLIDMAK
Turning to V85I, the “effect of a mutation on the interaction” value is “with no effect”. Regarding L75M, the “effect of a mutation on the interaction” value is “disrupting interaction strength”.

Variants of B5 are the subject of a further assay. Conditions: with tri23_human TRIM23, P36406.
tri23_human TRIM23, P36406, sequence (P36406 whole entry): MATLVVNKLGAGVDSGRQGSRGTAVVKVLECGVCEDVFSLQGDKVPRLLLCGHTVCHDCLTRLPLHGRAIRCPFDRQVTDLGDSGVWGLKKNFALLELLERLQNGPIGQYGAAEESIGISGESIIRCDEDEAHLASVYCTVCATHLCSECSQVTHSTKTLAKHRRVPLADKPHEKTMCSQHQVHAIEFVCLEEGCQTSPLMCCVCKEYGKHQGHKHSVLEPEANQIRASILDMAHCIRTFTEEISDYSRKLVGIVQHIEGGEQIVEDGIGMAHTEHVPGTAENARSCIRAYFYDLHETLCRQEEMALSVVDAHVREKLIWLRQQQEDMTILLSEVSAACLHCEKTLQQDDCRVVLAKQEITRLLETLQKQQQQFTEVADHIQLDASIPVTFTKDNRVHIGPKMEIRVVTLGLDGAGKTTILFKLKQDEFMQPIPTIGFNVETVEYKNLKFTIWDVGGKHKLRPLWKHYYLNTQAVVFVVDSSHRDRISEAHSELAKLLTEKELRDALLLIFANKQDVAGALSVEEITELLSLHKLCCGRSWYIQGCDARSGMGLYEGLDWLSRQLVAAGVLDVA
R342H: the “effect of a mutation on the interaction” value is recorded as “with no effect”.

Variants of B5 are the subject of the next assay. The note with it: with clk2_human CLK2, P49760.
clk2_human CLK2, P49760, sequence (P49760 whole entry, looked up): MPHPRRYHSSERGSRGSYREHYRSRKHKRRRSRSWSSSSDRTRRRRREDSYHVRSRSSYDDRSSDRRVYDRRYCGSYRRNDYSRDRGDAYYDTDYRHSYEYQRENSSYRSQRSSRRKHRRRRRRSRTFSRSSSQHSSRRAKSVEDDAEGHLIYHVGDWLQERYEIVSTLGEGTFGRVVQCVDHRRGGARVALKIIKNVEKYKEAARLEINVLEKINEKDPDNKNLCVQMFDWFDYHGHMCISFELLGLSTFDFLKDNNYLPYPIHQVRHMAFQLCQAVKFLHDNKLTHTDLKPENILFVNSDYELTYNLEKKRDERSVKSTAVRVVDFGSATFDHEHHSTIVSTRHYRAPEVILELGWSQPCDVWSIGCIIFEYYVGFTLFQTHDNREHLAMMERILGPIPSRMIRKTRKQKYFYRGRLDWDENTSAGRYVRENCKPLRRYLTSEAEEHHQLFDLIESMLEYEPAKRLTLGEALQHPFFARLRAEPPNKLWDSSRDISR
For R342H, the “effect of a mutation on the interaction” value is listed as “with no effect”.

The variants in the next assay derive from B6. Conditions: with sgta_human SGTA.
In the case of Y111H, the “effect of a mutation on the interaction” value is on record as “with no effect”.
